# Experimental data reported in IntAct's records for PubMed 22921828.
# B1: Epidermal growth factor receptor kinase substrate 8 (Homo sapiens), Q12929 (parent)
# chain: MNGHISNHPSSFGMYPSQMNGYGSSPTFSQTDREHGSKTSAKALYEQRKNYARDSVSSVSDISQYRVEHLTTFVLDRKDAMITVDDGIRKLKLLDAKGKVWTQDMILQVDDRAVSLIDLESKNELENFPLNTIQHCQAVMHSCSYDSVLALVCKEPTQNKPDLHLFQCDEVKANLISEDIESAISDSKGGKQKRRPDALRMISNADPSIPPPPRAPAPAPPGTVTQVDVRSRVAAWSAWAADQGDFEKPRQYHEQEETPEMMAARIDRDVQILNHILDDIEFFITKLQKAAEAFSELSKRKKNKKGKRKGPGEGVLTLRAKPPPPDEFLDCFQKFKHGFNLLAKLKSHIQNPSAADLVHFLFTPLNMVVQATGGPELASSVLSPLLNKDTIDFLNYTVNGDERQLWMSLGGTWMKARAEWPKEQFIPPYVPRFRNGWEPPMLNFMGATMEQDLYQLAESVANVAEHQRKQEIKRLSTEHSSVSEYHPADGYAFSSNIYTRGSHLDQGEAAVAFKPTSNRHIDRNYEPLKTQPKKYAKSKYDFVARNNSELSVLKDDILEILDDRKQWWKVRNASGDSGFVPNNILDIVRPPESGLGRADPPYTHTIQKQRMEYGPRPADTPPAPSPPPTPAPVPVPLPPSTPAPVPVSKVPANITRQNSSSSDSGGSIVRDSQRHKQLPVDRRKSQMEEVQDELIHRLTIGRSAAQKKFHVPRQNVPVINITYDSTPEDVKTWLQSKGFNPVTVNSLGVLNGAQLFSLNKDELRTVCPEGARVYSQITVQKAALEDSSGSSELQEIMRRRQEKISAAASDSGVESFDEGSSH
# partner: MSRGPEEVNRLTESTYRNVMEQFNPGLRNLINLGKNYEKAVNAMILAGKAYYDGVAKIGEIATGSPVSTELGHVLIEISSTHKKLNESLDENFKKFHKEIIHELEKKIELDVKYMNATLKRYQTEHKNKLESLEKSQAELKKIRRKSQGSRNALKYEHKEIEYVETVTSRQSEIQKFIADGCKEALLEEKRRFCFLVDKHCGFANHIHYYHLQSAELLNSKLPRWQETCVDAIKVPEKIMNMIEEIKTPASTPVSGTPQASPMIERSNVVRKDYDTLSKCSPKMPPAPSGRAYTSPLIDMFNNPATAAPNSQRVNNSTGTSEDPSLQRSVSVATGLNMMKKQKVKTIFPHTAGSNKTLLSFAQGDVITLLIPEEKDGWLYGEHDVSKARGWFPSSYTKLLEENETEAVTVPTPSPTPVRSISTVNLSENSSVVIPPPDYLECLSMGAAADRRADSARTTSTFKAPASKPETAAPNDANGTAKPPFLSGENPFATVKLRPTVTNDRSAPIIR
# B2: "Secreted effector protein EspF(U)" (Escherichia coli O157:H7), P0DJ88 (parent)
# chain: MINNVSSLFPTVNRNITAVYKKSSFSVSPQKITLNPVKISSPFSPSSSSISATTLFRAPNAHSASFHRQSTAESSLHQQLPNVRQRLIQHLAEHGIKPARSMAEHIPPAPNWPAPPPPVQNEQSRPLPDVAQRLVQHLAEHGIQPARNMAEHIPPAPNWPAPPLPVQNEQSRPLPDVAQRLVQHLAEHGIQPARSMAEHIPPAPNWPAPPPPVQNEQSRPLPDVAQRLMQHLAEHGIQPARNMAEHIPPAPNWPAPTPPVQNEQSRPLPDVAQRLMQHLAEHGIQPARNMAEHIPPAPNWPAPTPPVQNEQSRPLPDVAQRLMQHLAEHGINTSKRS
# partner: B1 partner
# Variants of: B1
# Settings: with bi2l1_human BAIAP2L1, Q9UHR4
row,Variant,effect of a mutation on the interaction
1,A215W,increasing interaction strength

# Variants of: B2
# Settings: with bi2l1_human BAIAP2L1, Q9UHR4
row,Variant,effect of a mutation on the interaction
1,W300A,decreasing interaction strength

# Variants of: B2
# Settings: with bi2l1_human BAIAP2L1, Q9UHR4
# Remark: another data set of the same source
row,Variant,effect of a mutation on the interaction
1,W300A,disrupting interaction strength
